Assay results: patent publication US6653533, “Nucleic acids encoding proteins with pathogen resistance activity and plants transformed therewith” (Purdue Research Foundation)

T1: Pti1 (Lycopersicon esculentum, UniProt Q41328 Q41328:1-354)
T1 sequence: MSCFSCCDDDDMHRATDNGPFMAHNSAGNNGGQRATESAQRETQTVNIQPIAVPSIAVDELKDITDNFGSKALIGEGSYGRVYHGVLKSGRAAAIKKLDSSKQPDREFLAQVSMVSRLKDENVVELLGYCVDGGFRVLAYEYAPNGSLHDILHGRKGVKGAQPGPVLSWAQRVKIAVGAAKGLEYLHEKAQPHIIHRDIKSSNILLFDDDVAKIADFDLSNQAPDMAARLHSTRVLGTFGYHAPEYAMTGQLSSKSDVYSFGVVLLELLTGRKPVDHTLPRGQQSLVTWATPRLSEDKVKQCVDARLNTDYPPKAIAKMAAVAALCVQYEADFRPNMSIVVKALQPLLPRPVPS

B1: wild type gln2 PR-box 2x (dsDNA)
DNA 1: CATAAGAGCCGCCACTAAAATAAGACCGATCAAATAAGAGCCGCCAT
DNA 2: ATGGCGGCTCTTATTTGATCGGTCTTATTTTAGTGGCGGCTCTTATG
B2: mutated PR-box 2x (dsDNA)
DNA 1: CATAAGATCCTCCACTAAAATAAGACCGATCAAATAAGATCCTCCAT
DNA 2: ATGGAGGATCTTATTTGATCGGTCTTATTTTAGTGGAGGATCTTATG

Assays:
Pti6 [1] = biological target: T2, Pti6 (Lycopersicon esculentum, UniProt O04682 SEQ:1-248); assay: EMSA; 4 fmol probe, poly(dA-dT), 25 mM Hepes pH 7.5, 40 mM KCl, room temperature; conditions: tags: GST fusion (pGEX), E. coli PR745; label: 32P end label
Protocol: (§1) The wild type gln2 PR-box 2× ([…] […])(SEQ ID NO:17) and mutated PR-box 2× ([…] […]) (SEQ ID NO:18) were end-labeled by 32P as described by Ausubel, F. M., Brent, R., Kingston, R. E., Moore, D. D., Seidman, J. G., Smith, J. A., and Struhl, K. (1994). Current Protocols in Molecular Biology. (New York: Greene Publish Associates/John Wiley and Sons). Four fmol of probe was mixed with each of the purified GST-fusion proteins in a buffer containing 2 μg poly(dA-dT) (dA-dT), 25 mM Hepes (PH7.5), 40 mM KCl, 0.1 mM EDTA, 10% glycerol, and 1 mM DTT, incubated at room temperature for 15 minutes, and electrophoresed on a 4% polyacrylamide gel in 0.25×TBE buffer. Ohme-Takagi, M. and Shinshi, H. (1995). Ethylene-inducible DNA-binding proteins that interact with an ethylene-responsive element. Plant Cell 7, 173–182. The gel was subsequently dried and exposed to x-ray film. […] In contrast to GST-Pti5 and GST-Pti6, neither GST-Pti1 nor GST itself bound to the PR-box.

Pti5 [2] = biological target: T3, Pti5 (Lycopersicon esculentum, UniProt O04681 SEQ:1-161); assay: as above; conditions: tags: GST fusion (pGEX), E. coli PR745; label: 32P end label
Protocol: as §1

GST = GST (UniProt P08515 P08515:1-218); assay: EMSA; negative control protein; conditions: tags: GST alone; label: 32P end label
Protocol: as §1

Pti1 = biological target: T1, Pti1; assay: EMSA; negative control protein; conditions: tags: GST fusion; label: 32P end label
Protocol: as §1

Pti6 [3] = biological target: T2, Pti6; assay: EMSA; no binding detected; same buffer; conditions: tags: GST fusion (pGEX), E. coli PR745; label: 32P end label
Protocol: as §1

Pti5 [4] = biological target: T3, Pti5; assay: EMSA; no binding detected; same buffer; conditions: tags: GST fusion (pGEX), E. coli PR745; label: 32P end label
Protocol: as §1

T2 sequence (O04682 whole entry, the tested form may be a part): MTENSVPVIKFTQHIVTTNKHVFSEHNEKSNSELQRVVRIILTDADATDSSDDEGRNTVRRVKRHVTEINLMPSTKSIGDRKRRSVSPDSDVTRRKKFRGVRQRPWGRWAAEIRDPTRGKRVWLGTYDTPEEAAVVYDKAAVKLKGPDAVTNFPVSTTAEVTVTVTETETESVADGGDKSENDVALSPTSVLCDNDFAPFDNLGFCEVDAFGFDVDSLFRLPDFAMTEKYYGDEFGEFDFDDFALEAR
T3 sequence (O04681 other isoform, or with tags, fused parts or gaps): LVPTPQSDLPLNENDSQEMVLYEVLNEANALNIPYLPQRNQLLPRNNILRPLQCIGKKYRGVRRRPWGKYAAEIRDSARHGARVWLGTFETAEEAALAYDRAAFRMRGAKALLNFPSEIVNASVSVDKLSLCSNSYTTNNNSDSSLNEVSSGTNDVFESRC
Sequence of GST (P08515 whole entry, one chain of several): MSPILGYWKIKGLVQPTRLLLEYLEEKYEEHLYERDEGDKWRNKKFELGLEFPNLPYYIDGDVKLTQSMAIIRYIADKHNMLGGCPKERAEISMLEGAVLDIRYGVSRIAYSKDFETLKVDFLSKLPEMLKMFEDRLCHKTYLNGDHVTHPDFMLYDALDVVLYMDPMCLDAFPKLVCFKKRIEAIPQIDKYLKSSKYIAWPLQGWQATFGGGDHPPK

Row | Binder | binding result (Pti6 [1]) | binding result (Pti5 [2]) | binding result (GST) | binding result (Pti1) | binding result (Pti6 [3]) | binding result (Pti5 [4])
1 | B1 | binds | binds | no binding | no binding | – | –
2 | B2 | – | – | – | – | no binding | no binding
